B1: GA-binding protein alpha chain, residues 172 to 250; numbered along this chain, Q06546 (parent)
chain: GYRKEQERLGIPYDPIQWSTDQVLHWVVWVMKEFSMTDIDLTTLNISGRELCSLNQEDFFQRVPRGEILWSHLELLRKY
B2: Ankyrin repeat and SOCS box protein 14, residues 532 to 572; numbered along this chain, A6NK59 (parent)
chain: RSLKHLCRLKIRKCMGRLHLRCPVFMSFLPLPNRLKAYVLY

Variants of: B1
Test: abundance fitness (aPCA) (normalised: wild type 0, dead -1); higher = more abundant; growth selection in yeast, the domain comes from the species named
Details: Homo sapiens

Abundance fitness, by site and new letter:
W70: V -0.92; N -0.766; K -0.872; R -0.526; S -0.913; A -0.748; M -0.557; Y -0.058; C -0.793; E -0.801; G -0.843; Q -0.875; T -1.05; H -0.494; F -0.181
Y79: R -0.054; H 0.002; C -0.061; G 0.031; F 0.062; M -0.299; V -0.096; N 0.107; Q 0.006; A -0.021; L -0.032; W -0.09; P 0.009; K 0.146; E 0.01; I -0.09; T -0.148; S 0.038; D 0.06
L75: G -0.132; H 0.031; Q -0.08; F -0.136; T 0.024; S 0.046; E 0.024; M -0.042; K -0.122; Y 0.01; W -0.104; R -0.012; I 0.107; A -0.02; D -0.022; V -0.193
H72: F -0.888; I -0.338; D -0.214; W -1.02; Y -0.46; R -0.295; S -0.143; T -0.38; K -0.282; P -1; V -0.554; E 0.009; L -0.751; Q 0.019; A -0.244; M -0.322
L69: G -1.04; K -1; W -0.432; H -0.259; R -0.977; N -0.974; S -0.882; P -1.06; Y -0.265; I -0.499; V -0.393; M -0.124
R77: D -0.382; N -0.119; Q -0.299; I -0.23; M -0.348; E -0.36; A -0.547; G -0.515; F -0.859; W -0.873; K 0.016; V -0.343; L -0.165; H -0.07; T -0.246; C -0.255; S -0.311
K78: A 0; M -0.071; L -0.135; G 0.033; W -0.23; V -0.078; E -0.05; H -0.015; I -0.009; P -0.195; F -0.086; R 0.003; N 0.096; S -0.045; Q -0.059; D 0.023; Y -0.208
S71: V -0.131; D 0.027; A -0.046; W -0.042; H -0.029; R -0.034; M -0.162; C -0.167; L -0.156; N -0.115; G -0.01; Y -0.027; Q 0.01; E -0.021; K -0.102; P -0.102; I -0.157; F -0.102; T 0.021
L76: R -0.677; I -0.236; S -0.676; K -0.876; G -0.95; V -0.182; A -0.534; E -0.521; F -0.354; T -0.29; P -0.727; C -0.119; W -0.621; H -0.317; Q -0.416; M -0.093
L73: Y -0.962; I -0.542; K -0.422; T -0.97; V -0.376; C -0.979; M -0.347; P -0.658; N -0.979; G -0.937; W -0.173; Q -0.713; E -0.758; A -0.736
E74: D -0.023; K -0.106; L -0.109; N -0.226; W -0.336; T -0.161; C -0.138; G -0.066; I -0.302; F -0.322; V -0.213; A -0.061; Y -0.287; Q -0.075; P -0.904; S -0.051

Variants of: B2
Test: as above
Details: Homo sapiens

Abundance fitness, by site and new letter:
L6: A 0.122; V -0.183; H 0.054; S 0.155; Q 0.261; G -0.297; Y 0.083; E 0.166; C 0.204; W 0.394; T -0.041; R 0.154; D 0.192; K 0.027; P -0.493
R1: F 0.243; S -0.39; T -0.372; N 0.093; C -0.113; V -0.1; A -0.414; M 0.386; E -0.033; G -0.042; W 0.045; K -0.107
H5: M 0.057; S 0.069; Q -0.296; G -0.37; R -0.285; L -0.184; N -0.105; C -0.043; P -0.6; E -0.018; D -0.293; A -0.137; V -0.94
L3: K -0.575; V -0.547; N -0.529; R -0.759; H -0.878; G -0.686; C -0.517; M -0.163; A -0.939; P -0.949; E -0.142; T -0.668; Q -0.655; W 0.011; D -0.331
K10: C -0.193; G -0.066; T 0.039; E -0.208; A 0.352; L 0.445; R -0.393; Q -0.107; M 0.439; D -0.319; H -0.559; V 0.406; Y 0.168
R8: Y 0.329; S -0.132; T 0.005; A 0.104; W 0.4; K 0.118; G -0.004; V 0.057; P 0.076; L 0.07; Q -0.048; C 0.006; E -0.092
I11: W 0.023; Q -0.992; C -1.05; P -0.675; G -0.68; L -0.09; K -0.858; V -0.17; A -0.613; R -0.956; T -0.722; E -0.953
C7: S -0.357; K -0.596; R -0.871; E -0.37; W 0.099; T -0.217; I 0.229; H -0.631; A 0.063; N -0.414; F 0.041; G -0.291; P -0.577; V 0.304; M 0.24; Q -0.529
K4: T 0.031; D -0.808; P -0.233; M -0.002; V -0.174; A 0.041; E -0.596; W 0.051; S -0.135; G -0.157; L 0.157; Q -0.425; Y 0.34; R -0.155; N -0.344
L9: S 0.012; D 0.13; V -0.22; K -0.234; M 0.076; A 0.003; E 0.308; C 0.119; R -0.205; H -0.089; T 0.118; I 0.08; Q 0.156; G -0.084; W -0.235; P -0.866
S2: M 0.48; W -0.097; V -0.339; C -0.572; K -0.053; R -0.153; L 0.136; T -0.196; E -0.057; P -0.521; D 0.299; A -0.37; I 0.335
R12: C -0.249; D -0.03; G -0.262; A -0.261

Source: the Human Domainome abundance scans (Beltran et al. 2025)
